{
  "source": "paper PMC3814152",
  "about": "(Molecular Biology of the Cell, 2013)",
  "proteins": {"B1": {"name": "Mzt1-His6 (natural protein)", "chain": "MSESTKETIEVLYEIGTLLGTELDKTTLSLCISLCENNVHPEAIAQIIREIRMAQEQTVDTEPS"}},
  "target": "the molecule itself",
  "assay": "SEC",
  "data": [
    {"protein": "B1", "values": [
      {"measurement": "stoichiometry N", "value": "~12"}
    ]}
  ]
}
